Data taken from patent US20230192785A1, “JNK3 INHIBITORY PEPTIDES” (UNIVERSITA' DEGLI STUDI DI MILANO, priority 2020, published 2023).
Ends that are not written are not given here.

Tests used:
JNK3 = JNK3 (Homo sapiens, UniProt P53779); assay: Alpha Screen Kinase Assay, cell-free JNK3 activity; assay type: biochemical; settings: cell-free AlphaScreen, FIG. 3B
Description: FIG. 3: A) Cell-free assay of JNK1 activity in the presence of peptides according to the invention.
To evaluate the specificity of the four peptides described above for JNK3, the Alpha Screen Kinase Assay was performed, following the experimental method described for the cell-free assays. Briefly, this AlphaScreen assay is used to measure the ability of the JNK kinase to phosphorylate its targets. The kinase reaction was performed under the following buffer conditions of the assay: 20 mM Tris / HCl (pH 7.4), 10 mM MgCl2, 1 mM DTT, 100 µM Na3VO4 and 0.01% Tween-20. Compounds (final concentration 5 µg / mL, 1% DMSO) or the control vehicle (final concentration 1% DMSO) were diluted in the assay buffer and mixed with JNK kinase (final concentration 5 nM). After an incubation time of 15 minutes at room temperature, biotinylated substrate, 6 nM final and ATP, 1 µM final diluted in assay buffer were added, followed by incubation of the dishes for 2 hours at room temperature. After this incubation period, the streptavidin donor and acceptor beads coated with anti-phosphosubstrate protein A antibody were added, with a final concentration of each component of 20 µg / mL, diluted in the following buffer: 20 mM Tris / HCl (pH 7.4), 200 mM NaCl, 80 mM ethylenediamine tetraacetic acid (EDTA) and 0.3% bovine serum albumin (BSA). After an overnight incubation, the dosage was measured using the AlphaQuest reader.
The ATP-competitive and non-selective inhibitor SP600125 was used as a positive control for the different isoforms of JNK.

[1] = Toxicity after single injection: body weight and side effects in mice; assay type: in vivo, mouse
Description: FIG. 9: A) Measurement of body weight in mice before treatment. Data are expressed as mean body weight (g) ± SEM. B) Weight gain or loss was analyzed as the difference between the weight at the end and before the treatment. Data are expressed as mean ± SEM.
Therefore, SIMBA2 at the highest dose was able to prevent synaptopathy in vivo.
The toxicity of SIMBA2 after a single injection was evaluated. As an index of the general health of the animals, the change in the body weight of the mice was evaluated. […] 1 month after the I.P. injection, the body weight was measured again.

mouse cortical neurons = assay: MTT toxicity assay on cortical neurons under control conditions; assay type: cell-based; settings: 24 hours, 3 doses tested, FIG. 4A
Description: FIG. 4: A) Toxicity at the indicated concentrations of SIMBA2 was evaluated by MTT assay and it is expressed in % survival. Data are expressed as mean ± SEM of 3 independent experiments (n = 6). ANOVA one-way, Dunnett post hoc test. B) Western blot of cortical neurons under control conditions and relative quantification showing that SIMBA2 (0.25-0.5 µM) prevents the phosphorylation of APP at the T668 position in a dose-dependent manner. Data are expressed as mean ± SEM of 3 independent experiments (n = 6). ANOVA one-way, Dunnett’s post-hoc test, ** p <0.01. C) Western blot and related quantification showing that SIMBA2 (0.25-0.5 µM) reduces P-c-Jun phosphorylation in neurons. Data are expressed as mean ± SEM of 3 independent experiments (n = 6). […]
FIG. 10: A) Toxicity at the indicated concentrations of SIMBA2, evaluated by MTT assay and expressed as fold of change with respect to tcontrol. Data are expressed as mean ± SEM of 3 independent experiments (n = 6). […] B) Western blot of cortical neurons under control conditions in the absence (Ctr) or in the presence of SIMBA2 1 µM (1) and relative quantification showing that SIMBA2 (1 µM) at 24 h prevents the phosphorylation of P-c-Jun and reduces the phosphorylation of the APP at position T668 and C) the activity is maintained at 3 days and D) at 6 days after treatment. Data are expressed as mean ± SEM of 2 independent experiments (n = 5). […]

Sequence of JNK3 (P53779 whole entry, species assumed): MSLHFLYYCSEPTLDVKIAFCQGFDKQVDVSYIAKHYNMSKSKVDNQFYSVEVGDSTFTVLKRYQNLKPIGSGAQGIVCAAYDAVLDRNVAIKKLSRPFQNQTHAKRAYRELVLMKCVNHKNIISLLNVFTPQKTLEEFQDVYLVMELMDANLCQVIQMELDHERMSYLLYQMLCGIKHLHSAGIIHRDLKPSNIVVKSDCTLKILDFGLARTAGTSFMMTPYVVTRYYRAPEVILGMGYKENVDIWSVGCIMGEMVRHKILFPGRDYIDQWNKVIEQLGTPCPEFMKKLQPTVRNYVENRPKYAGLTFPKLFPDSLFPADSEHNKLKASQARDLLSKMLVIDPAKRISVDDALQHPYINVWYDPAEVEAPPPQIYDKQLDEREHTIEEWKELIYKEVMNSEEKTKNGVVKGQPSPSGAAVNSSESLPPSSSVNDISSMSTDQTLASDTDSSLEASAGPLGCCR

SIMBA2 short A: peptide SDRSLHLEAEKGNVNVHVTKTEKGKIKVSVRQYADIEKGAQYKCPVAQLE (Designed peptide based on size and structure to act in the interaction among beta-arrestin-2 and JNK3)
inhibition of JNK3 activity on p-c-Jun (JNK3): inhibit the activity of JNK3 on p-c-Jun in a concentration-dependent manner

SIMBA2 short B: peptide SDRSLHLEAEKGNVNVHVTKTADKKIKVSVRQYADIEKGAQYKCPVAQLE (Designed peptide based on size and structure to act in the interaction among beta-arrestin-2 and JNK3)
inhibition of JNK3 activity on p-c-Jun (JNK3): inhibit the activity of JNK3 on p-c-Jun in a concentration-dependent manner

SIMBA2 long A: peptide SDRSLHLEANEKGENVNVHVTKTNEKGEKIKVSVRQYADINEKGEAQYKCPVAQLE (Designed peptide based on size and structure to act in the interaction among beta-arrestin-2 and JNK3)
inhibition of JNK3 activity on p-c-Jun (JNK3): inhibit the activity of JNK3 on p-c-Jun in a concentration-dependent manner

SDRSLHLEANEKGENVNVHVTKTRADKSKIKVSVRQYADINEKGEAQYKCPVAQLE [SIMBA2]
change in body weight ([1]; 1 month after single I.P. injection, FIG. 9B): did not show changes in body weight
side effects in vivo ([1]; TgCRND8 mice, 22 mg/kg): did not lead to the onset of any noticeable side effects
toxicity (MTT, % survival) (mouse cortical neurons): no toxicity
